Key:
[1] = target: monomeric His-tagged human FcRn (hFcRn) (JTA) (human) (UniProt P55899); assay: SPR, IgG amine-coupled, hFcRn (JTA) injected, pH 6.0; first value of the cell (kinetic fit)
[2] = target: monomeric His-tagged human FcRn (hFcRn) (JTA) (human) (UniProt P55899); assay: SPR, IgG amine-coupled, hFcRn (JTA) injected, pH 6.0; second value of the cell (steady-state affinity model)
[3] = target: monomeric His-tagged human FcRn (hFcRn) (JTA) (human) (UniProt P55899); assay: SPR, IgG amine-coupled, hFcRn (JTA) injected, 1:1 fit, pH 6.0
[4] = target: hFcRn in hFcRn TG mice (human FCGRT transgene) (human, UniProt P55899 24-365); assay: cell-based or functional assay
[5] = target: T1, recombinant human FcRn (Sino Biological Inc. Cat. No. CT009-H08H) (human, UniProt P55899 24-297; P61769 21-119); assay: competition ELISA vs biotinylated parent murine antibody, pH 7.4
T1 construct: Bought protein; also called hFcRn (SINO); immobilized FcRn

[6] = target: T1, recombinant human FcRn (Sino Biological …); assay: competition ELISA vs biotinylated human serum IgG, pH 6.0
[7] = target: T1, recombinant human FcRn (Sino Biological …); assay: competition ELISA vs biotinylated parent murine antibody, pH 6.0

Chain of monomeric His-tagged human FcRn (hFcRn) (JTA) (human) (P55899 24-297 limits assumed, chain 1 of 2): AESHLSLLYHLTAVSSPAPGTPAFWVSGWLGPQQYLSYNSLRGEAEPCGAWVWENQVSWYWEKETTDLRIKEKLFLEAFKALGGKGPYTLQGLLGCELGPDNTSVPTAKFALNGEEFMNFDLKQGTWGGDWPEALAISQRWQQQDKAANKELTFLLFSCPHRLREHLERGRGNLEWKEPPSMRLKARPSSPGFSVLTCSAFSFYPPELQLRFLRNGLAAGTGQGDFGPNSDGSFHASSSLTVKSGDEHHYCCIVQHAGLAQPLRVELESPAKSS
Chain of monomeric His-tagged human FcRn (hFcRn) (JTA) (human) (P61769 21-119 limits assumed, chain 2 of 2, further chain): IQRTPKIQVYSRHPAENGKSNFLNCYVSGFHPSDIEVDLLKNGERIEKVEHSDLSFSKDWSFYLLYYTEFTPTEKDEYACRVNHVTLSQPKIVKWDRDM
T1 sequence (P55899 24-297 limits assumed, chain 1 of 2): as the sequence (P55899 24-297 limits assumed, chain 1 of 2) above
T1 sequence (P61769 21-119 limits assumed, chain 2 of 2): as the sequence (P61769 21-119 limits assumed, chain 2 of 2, further chain) above
Chain of hFcRn in hFcRn TG mice (human FCGRT transgene) (P55899 24-365): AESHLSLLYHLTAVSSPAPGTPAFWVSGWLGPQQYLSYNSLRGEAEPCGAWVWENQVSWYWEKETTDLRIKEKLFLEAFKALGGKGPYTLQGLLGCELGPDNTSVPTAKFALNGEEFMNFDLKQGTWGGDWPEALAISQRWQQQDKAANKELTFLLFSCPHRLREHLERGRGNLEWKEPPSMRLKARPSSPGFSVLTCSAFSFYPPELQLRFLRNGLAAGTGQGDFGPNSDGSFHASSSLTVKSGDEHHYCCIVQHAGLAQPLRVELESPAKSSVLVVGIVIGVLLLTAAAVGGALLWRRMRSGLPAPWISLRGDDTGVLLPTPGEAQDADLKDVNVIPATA

human IgG1 (hIgG1) (antibody) was tested. Which Kd [1] did it give?
Its Kd is 763 nM.

And the Kd [2]?
Its Kd is 1250 nM.

And the koff [3]?
Its koff is 0.0824 s⁻¹.

And the kon [3]?
The kon was 108000 M⁻¹ s⁻¹.

What does the source list for human IgG4 (hIgG4) (antibody)?
Kd [1]: 1010 nM; Kd [2]: 970 nM

B1: H3Vκ2 (H3VH1_Vκ2) IgG4 (antibody, V domains shown)
VH: QVQLVQSGAELKKPGASVKLSCKASGYTFTSYGISWVKQATGQGLEWIGEIYPRSGNTYYNEKFKGRATLTADKSTSTAYMELRSLRSEDSAVYFCARSTTVRPPGIWGTGTTVTVSS
VL: DIQMTQSPSSLSASVGDRVTITCKASDHINNWLAWYQQKPGQAPRLLISGATSLETGVPSRFSGSGTGKDYTLTISSLQPEDFATYYCQQYWSTPYTFGGGTKVEIK
How did the “plasma concentration of HuLys11 (human IgG1) in hFcRn TG mice after 20 mg/kg” value [4] turn out when B1 was run?
Its value is 3 fold reduction.

B2: VH1_A8/Vκ1 IgG4 (antibody, V domains shown)
VH: QVQLVQSGAELKKPGASVKLSCKASGYTFTSYGISWVKQATGQGLEWIGEIYPRSGNTYYNEKFKGRATLTADKSTSTAYMELRSLKSEDSAVYFCARSTTVSPPAHWGTGTTVTVSS
VL: DIQMTQSPSYLSASVGDRVTITCKASDHINNWLAWYQQKPGQAPRLLISGATSLETGVPSRFSGSGTGKDYTLTISSLQTEDFATYYCQQYWSTPYTFGGGTKVEIK
notes: IgG4
How did the “average relative IC50 (normalized to chimeric parent murine antibody)” value [5] turn out when B2 was run?
The value was 0.89 ratio.

And the “average relative IC50 (normalized to parent murine antibody)” value [6]?
The value was 0.53 ratio.

What about the “average relative IC50 (normalized to chimeric parent murine antibody)” value [7] of the same molecule?
The value was 0.87 ratio.
